Experimental data from patent US20240366761A1 (LEGEND BIOTECH IRELAND, published 2024).

B1: TGB23-2 fusion protein (TGFβ receptor and IL-23 receptor fusion protein) (receptor)
chain 1: TIPPHVQKSVNNDMIVTDNNGAVKFPQLCKFCDVRFSTCDNQKSCMSNCSITSICEKPQEVCVAVWRKNDENITLETVCHDPKLPYHDFILEDAASPKCIMKEKKKPGETFFMCSCSSDECNDNIIFSEEYNTSNPDLLLVIFQVTGISLLPPLGVAISVIIIFYCYRVNRQNRSFRTGIKRRILLLIPKWLYEDIPNMKNSNVVKMLQENSELMNNNSSEQVLYVDPMITEIKEIFIPEHKPTDYKKENTGPLETRDYPQNSLFDNTTVVYIPDLNTGYKPQISNFLPEGSHLSNNNEITSLTLKPPVDSLDSGNNPRLQKHPNFAFSVSSVNSLSNTIFLGELSLILNQGECSSPDIQNSVEEETTMLLENDSPSETIPEQTLLPDEFVSCLGIVNEELPSINTYFPQNILESHFNRISLLEK
chain 2: LQCFCHLCTKDNFTCVTDGLCFVSVTETTDKVIHNSMCIAEIDLIPRDRPFVCAPSSKTGSVTTTYCCNQDHCNKIELPTTVKSSPGLGPVELAAVIAGPVCFVCISLMLMVYICHNRTVNRAARHLCPPLPTPCASSAIEFPGGKETWQWINPVDFQEEASLQEALVVEMSWDKGERTEPLEKTELPEGAPELALDTELSLEDGDRCKAKM
B2: TGB23-3 fusion protein (TGFβ receptor and IL-23 receptor fusion protein) (receptor)
chain 1: B1 chain 2
chain 2: B1 chain 1
B3: TGB23-4 fusion protein (TGFβ receptor and IL-23 receptor fusion protein) (receptor)
chain 1: LQCFCHLCTKDNFTCVTDGLCFVSVTETTDKVIHNSMCIAEIDLIPRDRPFVCAPSSKTGSVTTTYCCNQDHCNKIELPTTVKSSPGLGPVELVPQVTSKAFQHDTWNSGLTVASISTGHLTSDNRGDIGLLLGMIVFAVMLSILSLIGIFNRSFRTGIKRRILLLIPKWLYEDIPNMKNSNVVKMLQENSELMNNNSSEQVLYVDPMITEIKEIFIPEHKPTDYKKENTGPLETRDYPQNSLFDNTTVVYIPDLNTGYKPQISNFLPEGSHLSNNNEITSLTLKPPVDSLDSGNNPRLQKHPNFAFSVSSVNSLSNTIFLGELSLILNQGECSSPDIQNSVEEETTMLLENDSPSETIPEQTLLPDEFVSCLGIVNEELPSINTYFPQNILESHFNRISLLEK
chain 2: TIPPHVQKSVNNDMIVTDNNGAVKFPQLCKFCDVRFSTCDNQKSCMSNCSITSICEKPQEVCVAVWRKNDENITLETVCHDPKLPYHDFILEDAASPKCIMKEKKKPGETFFMCSCSSDECNDNIIFSEEYNTSNPDLLLVIFQVSDWLIFFASLGSFLSILLVGVLGYLGLNRAARHLCPPLPTPCASSAIEFPGGKETWQWINPVDFQEEASLQEALVVEMSWDKGERTEPLEKTELPEGAPELALDTELSLEDGDRCKAKM
B4: TGB23-5 fusion protein (TGFβ receptor and IL-23 receptor fusion protein) (receptor)
chain 1: TIPPHVQKSVNNDMIVTDNNGAVKFPQLCKFCDVRFSTCDNQKSCMSNCSITSICEKPQEVCVAVWRKNDENITLETVCHDPKLPYHDFILEDAASPKCIMKEKKKPGETFFMCSCSSDECNDNIIFSEEYNTSNPDLLLVIFQVPQVTSKAFQHDTWNSGLTVASISTGHLTSDNRGDIGLLLGMIVFAVMLSILSLIGIFNRSFRTGIKRRILLLIPKWLYEDIPNMKNSNVVKMLQENSELMNNNSSEQVLYVDPMITEIKEIFIPEHKPTDYKKENTGPLETRDYPQNSLFDNTTVVYIPDLNTGYKPQISNFLPEGSHLSNNNEITSLTLKPPVDSLDSGNNPRLQKHPNFAFSVSSVNSLSNTIFLGELSLILNQGECSSPDIQNSVEEETTMLLENDSPSETIPEQTLLPDEFVSCLGIVNEELPSINTYFPQNILESHFNRISLLEK
chain 2: LQCFCHLCTKDNFTCVTDGLCFVSVTETTDKVIHNSMCIAEIDLIPRDRPFVCAPSSKTGSVTTTYCCNQDHCNKIELPTTVKSSPGLGPVELVSDWLIFFASLGSFLSILLVGVLGYLGLNRAARHLCPPLPTPCASSAIEFPGGKETWQWINPVDFQEEASLQEALVVEMSWDKGERTEPLEKTELPEGAPELALDTELSLEDGDRCKAKM
B5: TGB23-6 fusion protein (TGFβ receptor and IL-23 receptor fusion protein) (receptor)
chain 1: B4 chain 2
chain 2: B4 chain 1

Molecular target: recombinant human TGFβ1 (human, UniProt P01137 279-390)
Assay: cell-based or functional assay

Chain of recombinant human TGFβ1 (P01137 279-390 limits assumed): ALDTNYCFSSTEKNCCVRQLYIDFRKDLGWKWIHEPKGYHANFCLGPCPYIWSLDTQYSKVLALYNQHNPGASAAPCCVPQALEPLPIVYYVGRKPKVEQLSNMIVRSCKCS

Binder	T cell number from day 0 to day 5 after transduction, culture with 20 ng/mL TGFβ1 [fold]
B1	> 4
B2	> 4
B3	> 4
B4	> 4
B5	> 4
